Laboratory results published in IntAct's records for PubMed 19509288.

B1: ATP-dependent RNA helicase SUPV3L1, mitochondrial (Homo sapiens), Q8IYB8 (parent)
chain: MSFSRALLWARLPAGRQAGHRAAICSALRPHFGPFPGVLGQVSVLATASSSASGGSKIPNTSLFVPLTVKPQGPSADGDVGAELTRPLDKNEVKKVLDKFYKRKEIQKLGADYGLDARLFHQAFISFRNYIMQSHSLDVDIHIVLNDICFGAAHADDLFPFFLRHAKQIFPVLDCKDDLRKISDLRIPPNWYPDARAMQRKIIFHSGPTNSGKTYHAIQKYFSAKSGVYCGPLKLLAHEIFEKSNAAGVPCDLVTGEERVTVQPNGKQASHVSCTVEMCSVTTPYEVAVIDEIQMIRDPARGWAWTRALLGLCAEEVHLCGEPAAIDLVMELMYTTGEEVEVRDYKRLTPISVLDHALESLDNLRPGDCIVCFSKNDIYSVSRQIEIRGLESAVIYGSLPPGTKLAQAKKFNDPNDPCKILVATDAIGMGLNLSIRRIIFYSLIKPSINEKGERELEPITTSQALQIAGRAGRFSSRFKEGEVTTMNHEDLSLLKEILKRPVDPIRAAGLHPTAEQIEMFAYHLPDATLSNLIDIFVDFSQVDGQYFVCNMDDFKFSAELIQHIPLSLRVRYVFCTAPINKKQPFVCSSLLQFARQYSRNEPLTFAWLRRYIKWPLLPPKNIKDLMDLEAVHDVLDLYLWLSYRFMDMFPDASLIRDLQKELDGIIQDGVHNITKLIKMSETHKLLNLEGFPSGSQSRLSGTLKSQARRTRGTKALGSKATEPPSPDAGELSLASRLVQQGLLTPDMLKQLEKEWMTQQTEHNKEKTESGTHPKGTRRKKKEPDSD
partner: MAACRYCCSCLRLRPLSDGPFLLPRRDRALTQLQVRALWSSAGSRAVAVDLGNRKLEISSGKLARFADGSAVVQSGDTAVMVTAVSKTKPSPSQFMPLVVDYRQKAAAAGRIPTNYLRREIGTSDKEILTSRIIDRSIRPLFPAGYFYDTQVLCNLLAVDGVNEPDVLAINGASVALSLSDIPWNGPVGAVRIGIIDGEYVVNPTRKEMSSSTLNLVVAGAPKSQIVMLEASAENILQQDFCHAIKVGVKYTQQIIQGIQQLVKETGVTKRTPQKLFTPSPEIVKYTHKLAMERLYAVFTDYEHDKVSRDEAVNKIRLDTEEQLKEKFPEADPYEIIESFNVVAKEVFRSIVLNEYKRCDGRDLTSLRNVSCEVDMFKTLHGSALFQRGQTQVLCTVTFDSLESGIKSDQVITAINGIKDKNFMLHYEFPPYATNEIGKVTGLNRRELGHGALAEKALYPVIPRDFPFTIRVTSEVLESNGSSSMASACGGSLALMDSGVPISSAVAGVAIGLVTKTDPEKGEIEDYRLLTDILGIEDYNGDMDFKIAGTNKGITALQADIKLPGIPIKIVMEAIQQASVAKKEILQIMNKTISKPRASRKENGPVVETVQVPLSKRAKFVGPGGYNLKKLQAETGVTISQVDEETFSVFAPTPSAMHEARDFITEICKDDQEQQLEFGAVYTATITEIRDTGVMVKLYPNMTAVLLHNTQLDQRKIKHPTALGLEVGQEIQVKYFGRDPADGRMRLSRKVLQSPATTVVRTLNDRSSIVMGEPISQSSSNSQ

Variants of: B1
Settings: with pnpt1_human PNPT1, Q8TCS8

effect of a mutation on the interaction | Variant
with no effect | K213A
